Data: patent publication US6328728A, “Composition and method for enhancing electrotransport agent delivery” (Alza Corporation, priority 1997, dated 2001)

Assay: Measurement of circular dichroism (mean residue ellipticity at 222 nm)
Type: physicochemical
Settings: for Ellipticity (mean residue at 222 nm) / Ellipticity (mean residue) (222 nm), raw / Ellipticity (mean residue) (222 nm), raw value: 32° C.
Excerpt: In general, the structure of a polypeptide in an aqueous buffered solution is in constant flux between portions thereof being random coil and alpha-helix configurations. For the polypeptides used in the following examples, the predominant structure is a random coil since the alpha-helix configuration is unstable in the absence of bound surfactant. According to the present invention adding surfactant to an aqueous solution of a polypeptide stabilizes the alpha-helix configuration. Circular dichroism is a measurement of the amount of the alpha-helix configured polypeptide present in the solution. Thus, circular dichroism provides an indirect measurement of the degree of binding of the surfactant to the polypeptide. (See, for example, Epand R. M., Epand R. F., Orlowski R. C., Schuleter R. J., Boni L. T. and Hui S. W., Biochemistry 22, 5074-5084 (1983); Hui, S. W., Epand R. M., Dell K. R., Epand R. F. and Orlowski R. C., Biochimica Biophysica Acta 772, 264-272 (1984); Epand R. M., Epand R. F., and Orlowski R. C., International Journal Peptide Protein Research 25 105-111; Epand R. M., Epand R. F., Orlowski R. C., Seyler J. K. and Colescott R. L., Biochemistry 25, 1964-1968; Epand R. M., Seyler J. K. and Orlowski R. C., European Journal Biochemistry 159, 125-127 (1986); Wiersema P. H., Loeb A. L. and Overbeek, J., Colloid Interface Science 22, 78-99 (1966)).
The surfactant/peptide circular dichroism (CD) spectra were obtained in a 2 mm path-length cell (110-Q-2 Model, AVIV, Lakewood, N.J.) at 32° C. The cell was initially loaded with 0.60 mL of a solution containing about 0.25 mg/mL of the peptide in 10 mM sodium chloroacetate (pH 3.5) or 10 mM sodium borate (pH 9.0). The buffers were selected to minimize the effect of the temperature on the pH of the solution and to minimize light absorption, thereby optimizing the signal-to-noise ratio (SNR). The peptide concentration was determined by spectrophotometry, with log-log correction for light scattering. The surfactant concentration was increased step-wise by titration of concentrated surfactant stock directly into the CD cell, followed by eight inversions of the cell, with the air bubble providing the mixing turbulence. After mixing, the cell was placed into the AVIV 62 CD spectrometer (AVIV, Lakewood, N.J.). In order to approximate temperature and chemical equilibrium, the sample remained in the spectrometer 5 minutes before a reading was taken. The CD spectrum was taken using a band pass of 1 nm, a data interval of 1 nm, and a data averaging time of 10 seconds. The mean residue ellipticity is the ellipticity divided by the path length in cm times the amino acid residue concentration in decimoles/cm^3. See Methods in Enzymology, Vol 130, pp 208-269, Yang et al, "Calculation of Protein Conformation from Circular Dichroism" (1986).
The measurement procedures described above were conducted on an aqueous solution of the protein insulinotropin, with TWEEN® 20 (MW=1126 g/mol) as the surfactant, with the following modifications. The insulinotropin donor solution concentration was 0.12 mg/mL. One test was run in 10 mM sodium borate at pH 9.0 and another test in 10 mM sodium chloroacetate at pH 3.5.
Fractional changes (%δ) are defined as the difference between the reading at a given surfactant concentration (Ec) minus the reading at zero surfactant (E0), the quantity divided by the difference between the reading at saturated surfactant concentration (Es) minus the reading at zero surfactant (E0), i. e. %δ=(Ec -E0)/(Es-E0).
The measurement procedures described earlier were conducted on an aqueous solution of insulinotropin as the agent, and TWEEN® 40 (molecular weight 1282 g/mol) as the surfactant with the following changes. The insulinotropin concentration was initially 0.29 mg/mL, and 0.21 mg/mL after the final TWEEN® 40 addition and the temperature was held at 32° C. Two tests were conducted at two different concentrations of TWEEN® 40. […]

[1] = pH 3.5, 10 mM sodium chloroacetate, TWEEN 20 0
[2] = pH 3.5, 10 mM sodium chloroacetate, TWEEN 20 0.133 mM
[3] = pH 3.5, 10 mM sodium chloroacetate, TWEEN 20 0.266 mM
[4] = pH 9.0, 10 mM sodium borate, TWEEN 20 0
[5] = pH 9.0, 10 mM sodium borate, TWEEN 20 0.133 mM
[6] = pH 9.0, 10 mM sodium borate, TWEEN 20 0.266 mM
[7] = pH 9.0, 10 mM sodium borate, TWEEN 20 0.515 mM
[8] = pH 9.0, 10 mM sodium borate, TWEEN 20 1.00 mM
[9] = pH 9.0, 10 mM sodium borate, TWEEN 20 1.67 mM
[10] = pH 9.0, 10 mM sodium borate, TWEEN 20 2.56 mM
[11] = pH 9.0, 10 mM sodium borate, TWEEN 20 2.66 mM
[12] = pH 9.0, 10 mM sodium borate, TWEEN 20 4.00 mM
[13] = pH 9.0, 10 mM sodium borate, TWEEN 20 5.00 mM
[14] = pH 9.0, 10 mM sodium borate, TWEEN 20 7.04 mM
[15] = pH 9.0, 10 mM sodium borate, TWEEN 20 7.26 mM
[16] = pH 9.0, 10 mM sodium borate, TWEEN 20 9.41 mM
[17] = pH 9.0, 10 mM sodium borate, TWEEN 20 12.3 mM
[18] = pH 9.0, 10 mM sodium borate, TWEEN 20 17.7 mM
[19] = pH 9.0, 10 mM sodium borate, TWEEN 20 20.0 mM
[20] = pH 9.0, 10 mM sodium borate, TWEEN 20 22.1 mM

Q: For “Insulinotropin: the protein insulinotropin”, which “Ellipticity (mean residue at 222 nm)” value (pH 3.5, 10 mM sodium chloroacetate, DTAC 0) is on record?
A: -4268 deg-cm^2 /dmol

Q: And the “Ellipticity (mean residue at 222 nm)” value (pH 3.5, 10 mM sodium chloroacetate, DTAC 0.83 mM)?
A: -5182 deg-cm^2 /dmol

Q: What about the “Ellipticity (mean residue at 222 nm)” value (pH 3.5, 10 mM sodium chloroacetate, DTAC 1.64 mM) of the same substance?
A: -7285 deg-cm^2 /dmol

Q: And the “Ellipticity (mean residue at 222 nm)” value (pH 3.5, 10 mM sodium chloroacetate, DTAC 3.23 mM)?
A: -9863 deg-cm^2 /dmol

Q: And the “Ellipticity (mean residue at 222 nm)” value (pH 3.5, 10 mM sodium chloroacetate, DTAC 5.51 mM)?
A: -11672 deg-cm^2 /dmol

Q: What about the “Ellipticity (mean residue at 222 nm)” value (pH 3.5, 10 mM sodium chloroacetate, DTAC 9.10 mM) of the same substance?
A: -11951 deg-cm^2 /dmol

Q: And the “Ellipticity (mean residue at 222 nm)” value (pH 3.5, 10 mM sodium chloroacetate, DTAC 13.0 mM)?
A: -12219 deg-cm^2 /dmol

Q: What about the “Ellipticity (mean residue at 222 nm)” value (pH 3.5, 10 mM sodium chloroacetate, DTAC 25.0 mM) of the same substance?
A: -12326 deg-cm^2 /dmol

Q: What about the “Ellipticity (mean residue) (222 nm), raw” value [1] of the same substance?
A: -4877

Q: What about the “Ellipticity (mean residue) (222 nm), raw” value [2] of the same substance?
A: -7087

Q: And the “Ellipticity (mean residue) (222 nm), raw” value [3]?
A: -8437

Q: And the “Ellipticity (mean residue at 222 nm)” value (pH 3.5, 10 mM sodium chloroacetate, TWEEN 40 0)?
A: -4621 deg-cm^2 /dmol

Q: What about the “Ellipticity (mean residue at 222 nm)” value (pH 3.5, 10 mM sodium chloroacetate, TWEEN 40 0.025 mM) of the same substance?
A: -4997 deg-cm^2 /dmol

Q: What about the “Ellipticity (mean residue at 222 nm)” value (pH 3.5, 10 mM sodium chloroacetate, TWEEN 40 0.092 mM) of the same substance?
A: -6045 deg-cm^2 /dmol

Q: And the “Ellipticity (mean residue at 222 nm)” value (pH 3.5, 10 mM sodium chloroacetate, TWEEN 40 0.214 mM)?
A: -7317 deg-cm^2 /dmol

Q: And the “Ellipticity (mean residue at 222 nm)” value (pH 3.5, 10 mM sodium chloroacetate, TWEEN 40 0.390 mM)?
A: -8554 deg-cm^2 /dmol

Q: What about the “Ellipticity (mean residue at 222 nm)” value (pH 3.5, 10 mM sodium chloroacetate, TWEEN 40 0.718 mM) of the same substance?
A: -10379 deg-cm^2 /dmol

Q: What about the “Ellipticity (mean residue at 222 nm)” value (pH 3.5, 10 mM sodium chloroacetate, TWEEN 40 1.21 mM) of the same substance?
A: -12282 deg-cm^2 /dmol

Q: What about the “Ellipticity (mean residue at 222 nm)” value (pH 3.5, 10 mM sodium chloroacetate, TWEEN 40 2.06 mM) of the same substance?
A: -14017 deg-cm^2 /dmol

Q: And the “Ellipticity, fractional change (% δ)” value [1]?
A: 0

Q: What about the “Ellipticity, fractional change (% δ)” value [2] of the same substance?
A: 0.21

Q: And the “Ellipticity, fractional change (% δ)” value [3]?
A: 0.34

Q: What about the “Ellipticity, fractional change (% δ)” value (pH 3.5, 10 mM sodium chloroacetate, TWEEN 20 0.515 mM) of the same substance?
A: 0.58

Q: And the “Ellipticity, fractional change (% δ)” value (pH 3.5, 10 mM sodium chloroacetate, TWEEN 20 1.00 mM)?
A: 0.59

Q: And the “Ellipticity, fractional change (% δ)” value (pH 3.5, 10 mM sodium chloroacetate, TWEEN 20 1.67 mM)?
A: 0.91

Q: What about the “Ellipticity, fractional change (% δ)” value (pH 3.5, 10 mM sodium chloroacetate, TWEEN 20 2.28 mM) of the same substance?
A: 0.96

Q: And the “Ellipticity, fractional change (% δ)” value (pH 3.5, 10 mM sodium chloroacetate, TWEEN 20 3.20 mM)?
A: 0.97

Q: And the “Ellipticity, fractional change (% δ)” value (pH 3.5, 10 mM sodium chloroacetate, TWEEN 20 4.44 mM)?
A: 1.00

Q: What about the “Ellipticity (mean residue) (222 nm), raw value” (“Ellipticity … raw value” for short) [4] of the same substance?
A: -5010

Q: And the “Ellipticity … raw value” [5]?
A: -5641

Q: And the “Ellipticity … raw value” [6]?
A: -6252

Q: What about the “Ellipticity … raw value” [7] of the same substance?
A: -6553

Q: And the “Ellipticity … raw value” [8]?
A: -7050

Q: What about the “Ellipticity … raw value” [9] of the same substance?
A: -7857

Q: What about the “Ellipticity … raw value” [10] of the same substance?
A: -7915

Q: What about the “Ellipticity … raw value” [11] of the same substance?
A: -8970

Q: And the “Ellipticity … raw value” [12]?
A: -9165

Q: What about the “Ellipticity … raw value” [13] of the same substance?
A: -9124

Q: And the “Ellipticity … raw value” [14]?
A: -10288

Q: What about the “Ellipticity … raw value” [15] of the same substance?
A: -9702

Q: And the “Ellipticity … raw value” [16]?
A: -10451

Q: What about the “Ellipticity … raw value” [17] of the same substance?
A: -10540

Q: What about the “Ellipticity … raw value” [18] of the same substance?
A: -10709

Q: And the “Ellipticity … raw value” [19]?
A: -10876

Q: What about the “Ellipticity … raw value” [20] of the same substance?
A: -10872

Q: What about the “Ellipticity, fractional change (% δ)” value [4] of the same substance?
A: 0

Q: And the “Ellipticity, fractional change (% δ)” value [5]?
A: .11

Q: What about the “Ellipticity, fractional change (% δ)” value [6] of the same substance?
A: .21

Q: And the “Ellipticity, fractional change (% δ)” value [7]?
A: .26

Q: What about the “Ellipticity, fractional change (% δ)” value [8] of the same substance?
A: .35

Q: And the “Ellipticity, fractional change (% δ)” value [9]?
A: .49

Q: And the “Ellipticity, fractional change (% δ)” value [10]?
A: .50

Q: And the “Ellipticity, fractional change (% δ)” value [11]?
A: .68

Q: What about the “Ellipticity, fractional change (% δ)” value [12] of the same substance?
A: .71

Q: And the “Ellipticity, fractional change (% δ)” value [13]?
A: .70

Q: What about the “Ellipticity, fractional change (% δ)” value [14] of the same substance?
A: .90

Q: And the “Ellipticity, fractional change (% δ)” value [15]?
A: .80

Q: What about the “Ellipticity, fractional change (% δ)” value [16] of the same substance?
A: .92

Q: What about the “Ellipticity, fractional change (% δ)” value [17] of the same substance?
A: .94

Q: And the “Ellipticity, fractional change (% δ)” value [18]?
A: .97

Q: What about the “Ellipticity, fractional change (% δ)” value [19] of the same substance?
A: 1.00

Q: What about the “Ellipticity, fractional change (% δ)” value [20] of the same substance?
A: 1.00
